Data as given in the supplement of paper PMC12042874.
± gives the uncertainty stated by the source.

Test: amyloid nucleation score (Sup35N fusion, yeast selection) (log enrichment); library NNK1; higher = more nucleation; inactive = no reads after selection
Method in brief: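 Nucleation score: DiMSum log enrichment of output over input reads, centred on the mode score of non-aggregating sequences. Only sequences with at least 100 input reads were kept. Reads came from Illumina sequencing of plasmid inserts before and after 7 days of growth at 30°C without adenine and uracil, in psi-negative yeast expressing Sup35N fused to peptides of 20 random codons after 24 hours of induction with 100 μM copper sulfate.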

| Substance | amyloid nucleation score |
| --- | --- |
| LVQMLTVDCATEKLHLAILS | 0.567 ± 0.64 |
| LVRRRSKSRVRVPFLRLSMR | -0.415 ± 0.72 |
| LVRYLCVPSFGKAGYDGEGE | -0.86 ± 0.79 |
| LVSGRRGRRESSNHMVGLLE | 0.968 ± 0.51 |
| LVSRRSGHKYYGTTTDCCKN | inactive |
| LVVLL | -0.108 ± 0.71 |
| LVVVGGKLNLTTWNAR | 0.829 ± 1 |
| LVWISVL | 0.163 ± 0.32 |
| LWCCMTLTIASNDFLNIRCM | 1.31 ± 0.15 |
| LWDLKIAGRLNLEGCRCGLW | 2.1 ± 0.13 |
| LWDVRPWRWVWEWENVNYGK | 0.382 ± 0.54 |
| LWFAHNS | 0.462 ± 0.59 |
| LWFLNRRLVKQSYG | 0.606 ± 0.38 |
| LWLIPRWYDLTEMECFDMYN | 0.477 ± 0.45 |
| LWNIIVSIKGRIVESLAPTY | -0.113 ± 0.51 |
| LWNIMVLDIWDRDLCSCIWG | 0.756 ± 0.56 |
| LWYTFMSLHLGTVLEVRK | inactive |
| LYAHYRADVHEEKSLYYVIA | 0.101 ± 0.23 |
| LYAVLDILVMFMLMSPP | 0.253 ± 0.36 |
| LYCFIMDFLLGFKHCMCKGV | 1.55 ± 0.44 |
| LYDLNIKWWRGASLVECECL | 0.139 ± 0.41 |
| LYGSVKNIKRLPHCFMLCLC | 0.616 ± 0.36 |
| LYHWYLRR | inactive |
| LYIQSSNYRDMVYPYSVVPL | 1.95 ± 0.28 |
| LYLEARGGRVSYHQLFFGER | 2.45 ± 0.18 |

| Substance | amyloid nucleation score |
| --- | --- |
| LYLIGTILNLIGY | 5.746 ± 0.045 |
| LYNVSSLGSANKSFLGRSS | 1.39 ± 0.76 |
| LYPLMEGDRKKL | 0.981 ± 0.47 |
| LYPNRAGGRLAGLGGMPYE | 0.085 ± 0.44 |
| LYRFWCYALST | inactive |
| LYSIVVKYCYQYLSRACNYN | 0.637 ± 0.36 |
| LYTCCSTYVCSNLGRNVK | 7.074 ± 0.06 |
| LYTVTTKR | -0.119 ± 0.31 |
| LYVDYQCIGSFVTIYKYITP | 0.889 ± 0.27 |
| LYVFSEKIFCRNGFSSYISL | 0.855 ± 0.74 |
| LYVVSSVFLGEPVRKQVYQI | -0.678 ± 0.96 |
| LYYNASTAIELNLEYSIKWL | 0.17 ± 0.8 |
| MAFMHLIISYCRYIF | 0.341 ± 0.74 |
| MAPEFCIEDKIRVVPFLIPI | 0.197 ± 0.89 |
| MASTMPC | -0.654 ± 1 |
| MAWDLT | 1.52 ± 0.22 |
| MCFDGICMNWWVR | 2.96 ± 0.086 |
| MCLSPVNNVLLYFRFNKRAE | 3.38 ± 0.12 |
| MCMQKVL | -0.263 ± 1.4 |
| MCSLFVCMSNTSIV | 5.406 ± 0.051 |
| MDLNEQTEYLLLASRFPMYY | inactive |
| MDNGTESPLE | 1.15 ± 0.72 |
| MDRFRHNLILICLFLPLILV | -0.364 ± 0.75 |
| MDSDRVRPDESSVGLN | 0.915 ± 0.56 |
| MEAWRHSTSACSDGA | -0.245 ± 0.39 |

| Substance | amyloid nucleation score |
| --- | --- |
| MESLIRFSPASKIVISPFTV | 0.748 ± 1.2 |
| MEWLYRNTATFCR | -0.657 ± 1.7 |
| MFFLYCLARRVGKLMECRV | 1.28 ± 0.46 |
| MFFVSI | 0.41 ± 0.22 |
| MFGIFM | 3.58 ± 0.099 |
| MFKNRGG | 0.057 ± 0.36 |
| MFLIGFDGTYERSSLF | -0.106 ± 1.7 |
| MFRALVCITVPILHKATNM | -0.689 ± 0.81 |
| MFSQLGVYISCFLSSSVDVE | 0.317 ± 0.48 |
| MFVDFTDVRMVYLSLCVYML | 1.25 ± 0.093 |
| MGHTGYFQCKVATWCEGE | 0.792 ± 0.92 |
| MGLMIMIFWWEDM | -0.82 ± 0.91 |
| MGSEVSELWGLVEVKVGDKP | 0.617 ± 0.52 |
| MHCLGLAWALELVSLLC | -0.374 ± 0.77 |
| MHISCNTDSSYTFGRNALK | 0.341 ± 0.74 |
| MHLVQSCYLVIPRVLDPELV | 0.313 ± 1 |
| MHRGDVMRSSWNHDGVGTVR | 0.048 ± 1.2 |
| MHVQRVFTRCFKFSPQFVRH | -1.11 ± 0.36 |
| MHYWGTGKHQINTWNMILFI | 3.95 ± 0.11 |
| MICYLF | 0.019 ± 0.26 |
| MIGTYRWMLIMGLETVRKGG | inactive |
| MIHVFLGETYLVIFAVNFST | inactive |
| MIMLIWVINSLTYGLEGLTA | 0.919 ± 0.39 |
| MIPDINIFQIIMVTHKLFRY | 3.71 ± 0.14 |
| MISDFSNVIMLVCIPCFLYV | 5.13 ± 0.067 |

| Substance | amyloid nucleation score |
| --- | --- |
| MKDYHSDHIKIVQANHTEKV | -1.32 ± 2.4 |
| MKGARFARS | 0.91 ± 0.8 |
| MKIGIGVFRDREGNSGWL | -0.741 ± 1.4 |
| MKVRISEILEILKVSFKNFP | -1.21 ± 1.4 |
| MKVYHSTQEVLWGQGGLLTR | -0.116 ± 0.42 |
| MKYKSWTSGSGSSVSRRMKL | 0.028 ± 0.72 |
| MKYPENSQWKDLYGFTVQVH | 0.102 ± 0.46 |
| MLEQAFESFPTWRTT | -0.06 ± 0.5 |
| MLFLARRILSEYRFMPTWVG | inactive |
| MLGSGAANTCHLTTRAWDHR | 0.183 ± 0.39 |
| MLHHLSYVAVRWCKRTRKLC | 0.405 ± 0.71 |
| MLIRWNSYTGHIGWIFSGKA | 0.94 ± 0.19 |
| MLRSNVLYLIHRALCLWCVT | 2.42 ± 0.17 |
| MLSII | -1.39 ± 1.7 |
| MLWSL | 0.342 ± 0.59 |
| MMLGSGFLCLLMYDGVRFLL | -0.839 ± 0.62 |
| MMRTEIARVLCLSLF | 0.077 ± 0.37 |
| MNFSYLWVYGNGL | -0.629 ± 0.63 |
| MNIVSTRS | 0.231 ± 0.22 |
| MNLQYHILN | -0.345 ± 1.7 |
| MPCFGVQKIYQLDETMPSET | 0.141 ± 0.45 |
| MPDYVVGYHGGWSCNLILRF | 2.54 ± 0.19 |
| MPGNQYCSVSYLYQRSSGTV | 0.384 ± 0.45 |
| MPLSILQLKTRFFKPSNDSR | 5.42 ± 0.11 |
| MPLYLVCDFLNYGFVISVSS | 4.42 ± 0.095 |

| Substance | amyloid nucleation score |
| --- | --- |
| MQINGRESDCMWNNMNARDW | -0.108 ± 0.27 |
| MQLHNGWMLITYKKGTSIIW | -2.3 ± 1.8 |
| MQLTFAVKLGENRE | 2.77 ± 0.079 |
| MRCPRLASSDNDPCLLSRVS | 0.357 ± 0.39 |
| MRDLALLAEVLVTD | 0.295 ± 0.4 |
| MRENIWPITCSNL | 2.28 ± 0.57 |
| MRFMPVVWCRRMQESLGHST | -0.026 ± 0.37 |
| MRGERVYSLRNNSHQ | -0.078 ± 0.33 |
| MRIIQCRRLFKVCCCFSVCL | 2.28 ± 0.14 |
| MRLSHAVTYRN | -0.987 ± 1.7 |
| MRLSNYFTGRDWGF | -0.046 ± 0.43 |
| MRLSQRWPNSKVCDLRHSRP | 0.632 ± 0.45 |
| MRNKKRPSRLVIGRLGNGFS | -0.079 ± 0.84 |
| MRNYNLAWRHSSYCTIRSNA | 0.51 ± 0.84 |
| MRPVSLYGFIFCCAFQGLWF | 4.99 ± 0.07 |
| MRRPVKCYGVVTL | -0.299 ± 1.1 |
| MRRRIQLDLRRFDPSCMKDV | -1.66 ± 1.1 |
| MRSMGLCTTGCQIDSRRVRW | 0.947 ± 0.61 |
| MRSWIVIMALKM | -1.34 ± 0.85 |
| MRYLNFLCHCVVVYVVMSAS | 2.16 ± 0.57 |
| MSASLWRGNKVDHWHSECYK | -0.661 ± 0.64 |
| MSAVTGYECFRSLLV | -0.055 ± 0.35 |
| MSDSG | -0.576 ± 0.81 |
| MSKIGLLRLDDYHRMGFCKQ | -0.469 ± 0.38 |
| MSLFNISSHSWLKFTLCVPG | 1.17 ± 0.66 |

| Substance | amyloid nucleation score |
| --- | --- |
| MSMKQEEVDGSSW | -0.553 ± 1.5 |
| MSNFLTELGNNSTHREDGER | 0.501 ± 0.78 |
| MSSFRGDLEFAYDYS | -0.582 ± 1.2 |
| MSVCAIYRVRVFQCCFTCLH | -0.953 ± 0.68 |
| MSVGSRFTHHIMWTVTKNRV | 0.424 ± 1 |
| MTAPHFLYLKRPHRPTRPDL | 0.898 ± 0.58 |
| MTRLINYCNGYNAKVVNWCF | 0.7 ± 0.97 |
| MTRNELLSLSLARCVGANAL | 0.088 ± 1.2 |
| MTRWTGRSLTLMRLQVVLRP | -0.413 ± 0.62 |
| MTSLFLCKVTRM | 0.23 ± 0.6 |
| MTSVADECSLYSWAYSWLMS | 1.84 ± 0.57 |
| MVDTYRYVIISVYVMLPYYN | 1.14 ± 0.97 |
| MVETVYMVEALCRGPEPVVV | -2.09 ± 2.4 |
| MVFRGFHKSQLGSFELAVGG | 0.428 ± 0.76 |
| MVGQYRYLSPYGW | 0.724 ± 1.2 |
| MVKLSLVIMMVLNGGMANGS | 0.69 ± 0.81 |
| MVQNVWDVRYDEAAMTLVRH | 0.461 ± 0.61 |
| MVRYKRRSLELFMIARYSCC | 0.599 ± 1.2 |
| MVSTPSDGNLED | -0.816 ± 0.65 |
| MVWVKGEDCFVDQACLRGAV | 1.03 ± 0.72 |
| MWIPFRVYLRAH | inactive |
| MWLFYRWVRSCTCP | -0.042 ± 0.32 |
| MWSIYMHVAHLGMQTRGCCR | 1.76 ± 0.22 |
| MWSLDGTKICNLRKVFGRSC | 0.809 ± 0.37 |
| MYASELSLKPATYSWK | -0.646 ± 0.42 |

| Substance | amyloid nucleation score |
| --- | --- |
| MYYSIGWKR | 1.48 ± 0.8 |
| MYYVIFNTNSHAN | 4.55 ± 0.093 |
| NAAYRVWMWKSLVRSLGRYK | 0.647 ± 0.4 |
| NADCLIDDFASFDHMVPG | 0.004 ± 0.51 |
| NAFSYTGRYIGLPRELGVLR | 1.06 ± 0.52 |
| NCASLLGRFSDDLIDHLSVL | 2.02 ± 0.62 |
| NCMAISGITVLNMSWNNLKI | 6.612 ± 0.064 |
| NCMLTECPGLHSNLMWSKWG | 1.5 ± 0.25 |
| NCNSGSNDTGFWQMASRTGL | 0.071 ± 0.4 |
| NCRMGR | -0.016 ± 1.7 |
| NCSMPFETMMKHSRN | -0.068 ± 0.53 |
| NCTWITGIFS | 0.044 ± 0.35 |
| NDDYHTLSQCACSFALRADG | 1.08 ± 0.54 |
| NDIPLSIRSHS | 0.269 ± 0.37 |
| NDIYLDGNVFKF | -0.477 ± 0.37 |
| NDNLVDNQT | 0.23 ± 0.75 |
| NDQVNVNFS | 0.338 ± 0.22 |
| NDRCFIGPWRSSRPGDFSGH | -0.043 ± 1.4 |
| NDRFFGSKYCGVIVLSISDL | 5.95 ± 0.061 |
| NDRTKNQSYFP | -0.195 ± 0.29 |
| NDSICTYSMAWGRERSGVCY | inactive |
